Experimental data: the DeepSol protein solubility set

Experiment: soluble on expression in E. coli; label from the status in PepcDB or PDB records

Row | Sequence | soluble on expression in E. coli
1 | QDVGQKSIFSITPEFDEVRSISNVGSNGDISSHGNTIYFTRHTLNSPQDIFSIDNHGDDLTQLTHINKDKLGDVKFADYQQFNFKGWNDETVHGYWLKPANFEAGKKYPIAFLVHGGPQGSFGNMFHYRWNAQLWAAQGYGVVMVDFHGSTGYGQEFTHSISRDWGGKPLEDLQKGLDFIVKEQPWLDGDNACALGASYGGYMMNWIAGNWPTRFKCLINHAGLYDMPSFYQSTEELWFPEYDMGGPSWGKENGSAKGKVSPDYTKFNPSAYVNNWQTPMLVIQGELDYRVPYAQSLGAFTTLQRKGIDSRLVMFPDEDHHIRKPDNLVVWYDEVFKWLEKYTK | not soluble
2 | QGHMRATNVTYQAHHVSRNKRGQVVGTRGGFRGCTIWLTGLSGAGKTTVSMALEEYLVCHGIPCYTLDGDNIRQGLNKNLGFSPEDREENVRRIAEVAKLFADAGLVCITSFISPYTQDRNNARQIHEGASLPFFEVFVDAPLHVCEQRDVKGLYKKARAGEIKGFTGIDSEYEKPEAPELVLKTDSCDVNDCVQQVVELLNERDILP | soluble
3 | QGHVGDHDSHEVMQRLDALLPTLRERAQETEDLRRIPDDSMKALQETGFFRLLQPEQWGGYQADPVLFYSAVRKIASACGSTGWVSSIIGVHNWHLALFSQQAQEDVWGNDTDVRISSSYAPMGAGQVVDGGYTVNGAWAWSSGCDHASWAVLGGPVIKDGRPVDFVSFLIPREDYRIDDVWNVVGLRGTGSNTVVVEDVFVPTHRVLSFKAMSNLTAPGLERNTAPVYKMPWGTIHPTTISAPIVGMAYGAYDAHVEHQGKRVRAAFAGEKAKDDPFAKVRIAEASSDIDAAWRQLSGNVADEYALLVAGEEVPFELRLRARRDQVRATGRAISSIDKLFESSGATALANGTPLQRFWRDAHAGRVHAANDPERAYVMYGTGEFGLPITDTMV | soluble
4 | QGMRAFLRVVETGNFTRASASLNMPKATVTNLIQGLEAHLRTKLLNRTTRRVLVTPDGALYYERAARLLSDLDELDGSLSTAQSLPKGRLRVETASAFANLVIIPALPEFHKKYPDIQIDLGVSDRTIDYLAENVDCAIRAGTLTDQSLIARRITEMKFVACASRDFLERHPVPQHPSDLEKNCYVVGYFLPKTGQQMPFHFRRGNEEIEVSGRYTMAANESTTYLAAARAGLGVIQAPLFMVREDLRNGTMVPVLPDWQVEPMPIYLVYPPNRHLSSRLRVFADWVVKVMAQSQNGEGS | soluble
5 | QHQEAGAGDLCALCGEHLYVLERLCVNGHFFHRSCFRCHTCEATLWPGGYEQHPGDGHFYCLQHLPQTD | soluble
6 | QKLGDGHYVMDGKVRIDQVNSLLGASIQEDVDTIGGLILKENIDIEAGESIRIGSYTIKVLKMDGRLIKQIDIKEEAGNTTGITAHHKLPLPEPVMLNSATLSEK | not soluble
7 | QKLVQLILDEIVEGGAKVEWTDIAGQDVAKQALQEMVILPSVRPELFTGLRAPAKGLLLFGPPGNGKTLLARAVATECSATFLNISAASLTSKYVGDGEKLVRALFAVARHMQPSIIFIDEVDSLLSERSSSEHEASRRLKTEFLVEFDGLPGNPDGDRIVVLAATNRPQELDEAALRRFTKRVYVSLPDEQTRELLLNRLLQKQGSPLDTEALRRLAKITDGYSGSDLTALAKDAALEPIRELNVEQVKCLDISAMRAITEQDFHSSLKRIRRSVAPQSLNSYEKWSQDYGDITIK | soluble
8 | QKVTLVKKKQETVSIDAGIDRMRRAVRLLDRAEWVEVIDSVRTNKADLLSAYNLIADNGRLEWVKGNQGEATSFVNGRGDHAIMTEKGEDGVYSLHEAHRIGGKWGNAIPLEKLNSRFNENYPSLRADGFTLLFASDRPDGIGGYDLYMTRRDLEDGIFLEPTLLGMPFNSPYNDYLLVYDELRGIGFFASDRFCPADVVTVYTFVINEEGRPVATDDMALKRAYASLKSIRATQDPERDYSRLIASARDNRTDAEKKASERQIYFPMQGMRIYTRWSDFQSSEAKSLYQDVMARKRKLEQAATRLEELRLLYGRASALERSGMKQEILRLENAIPPLEEEVGRMEKEVRNMELQAVQGF | not soluble
9 | QLIFDDCVFAFSGPVHEDAYDRSALETVVQDHGGLVLDTGLRPLFNDPFKSKQKKLRHLKPQKRSKSWNQAFVVSDTFSRKVKYLEALAFNIPCVHPQFIKQCLKMNRVVDFSPYLLASGYSHRLDCTLSQRIEPFDTTDSLYDRLLARKGPLFGKKILFIIPEAKSWQKKIENTEQGQKALAHVYHALALGADVEIRPNVAHLECDLILTMDGNIVDETNCPVVDPEWIVECLISQSDIST | soluble
